Test results from FireProtDB (doi:10.1021/bi034798l).

B1: SH2 domain-containing protein 1A, O60880 (parent)
chain: MDAVAVYHGKISRETGEKLLLATGLDGSYLLRDSESVPGVYCLCVLYHGYIYTYRVSQTETGSWSAETAPGVHKRYFRKIKNLISAFQKPDQGIVIPLQYPVEKKSSARSTQGTTGIREDPDVCLKAP

Variants of: B1
Conditions: Homo sapiens; pH 7.4; Thermal; CD; Phosphate buffer saline; structure 1KA6; whole UniProt chain shown

Variant	Tm [°C]	change of melting temperature, mutant - wild type (higher = more stable) [°C]
MDAVAVYHGKISRETGEKLLLATGLDGSYLPRDSESVPGVYCLCVLYHGYIYTYRVSQTETGSWSAETAPGVHKRYFRKIKNLISAFQKPDQGIVIPLQYPVEKKSSARSTQGTTGIREDPDVCLKAP	45.6	-12.2
MDAVAVYHGKISRETGEKLLLATGLDGSYLLRDSESVPGVYCLCVLYHGYIYTYRVSQTETGSWSAETAPGVHKRYFRKIKNLISASQKPDQGIVIPLQYPVEKKSSARSTQGTTGIREDPDVCLKAP	50.5	-7.3
MDAVAVYHGKISRETGEKLLLATGLDGSYLLRDSESVPGVYCLCVLYHGYIYTCRVSQTETGSWSAETAPGVHKRYFRKIKNLISAFQKPDQGIVIPLQYPVEKKSSARSTQGTTGIREDPDVCLKAP	48.2	-9.6
MDAVAVYHGKISRETGEKLLLATGLDGSYLLRDSESVPGVYCLCVLYHGYIYTYRVSQTETGSWSADTAPGVHKRYFRKIKNLISAFQKPDQGIVIPLQYPVEKKSSARSTQGTTGIREDPDVCLKAP	44.2	-13.6
MDAVAVYHGKISRETGEKLLLATGLDGSYLLRDSESVPGVYCLCVLYHGYIYTYRVSQTETGSWSAETAPGVHKRYFRKIKNLISAFQKPDQDIVIPLQYPVEKKSSARSTQGTTGIREDPDVCLKAP	49.1	-8.7
